The values that follow come from patent publication US20250215048A1 (MACFARLANE BURNET INSTITUTE FOR MEDICAL RESEARCH AND PUBLIC …, published 2025).

Assay [1] deals with Con1 HMW1 Δ123 (hepatitis C virus genotype 1b, strain Con1) (UniProt Q9WMX2). Description: direct ELISA on coated antigen; ratio of curve mid-points. In general terms: An ELISA detects its analyte on a solid surface through an enzyme-linked reagent.
Assay [2] deals with H77c HMW1 Δ123 (hepatitis C virus genotype 1a, strain H77c) (UniProt P27958). Described as above.
In assay [3] the target is S52 HMW1 Δ123 (hepatitis C virus genotype 3a, strain S52). Described as above.
The target in assay [4] is T1, dimeric maltose binding protein (MBP)-CD81-LEL113-201 (UniProt P60033 113-201).
T1 construct: range 113-201; Coated on ELISA plates; The order of the parts follows the printed name, and no linker is stated; also called recombinant CD81
T1 sequence: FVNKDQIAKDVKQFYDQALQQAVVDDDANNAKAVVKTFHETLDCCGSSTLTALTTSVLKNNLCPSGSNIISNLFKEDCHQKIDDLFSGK
In words: sandwich ELISA, MBP-CD81-LEL coated, anti-HIS detection.

Turning to CBH-4B (antibody), the binding to HMW1 Δ123 relative to H77c HMW1 Δ123 in assay [1] and in assay [3] was under 1 fold each time. The binding to HMW1 Δ123 relative to monomeric Δ123 of corresponding strain in assay [1] is under 0.24 fold; in assay [2], under 0.27 fold; in assay [3] it was under 0.62 fold.

As for AR3C (antibody), the results for the binding to HMW1 Δ123 relative to H77c HMW1 Δ123 in assay [1] and in assay [3] were 3.92 fold and 6.17 fold, respectively. Besides, the binding to HMW1 Δ123 relative to monomeric Δ123 of corresponding strain in assay [1] was 0.13 fold; in assay [2] it was 0.18 fold; in assay [3], 0.54 fold.

HC-11 (antibody): the binding to HMW1 Δ123 relative to H77c HMW1 Δ123 in assay [1] was determined as 6.97 fold; in assay [3] it was 1 fold. Also, the binding to HMW1 Δ123 relative to monomeric Δ123 of corresponding strain in assay [1] is 0.28 fold; in assay [2] it was 0.21 fold; in assay [3] it was under 0.2 fold.

Take CBH-4D (antibody): the binding to HMW1 Δ123 relative to H77c HMW1 Δ123 is under 1.23 fold in assay [1] and under 1.68 fold in assay [3]. Moreover, the binding to HMW1 Δ123 relative to monomeric Δ123 of corresponding strain in assay [1] is under 0.11 fold; in assay [2], under 0.27 fold; in assay [3] it was under 0.07 fold.

Take AR3D (antibody): in assay [1], the binding to HMW1 Δ123 relative to H77c HMW1 Δ123 is 4.73 fold and the binding to HMW1 Δ123 relative to monomeric Δ123 of corresponding strain worked out at 0.08 fold. Further, the binding to HMW1 Δ123 relative to monomeric Δ123 of corresponding strain in assay [2] was under 0.17 fold.

As to AR3B (antibody), the binding to HMW1 Δ123 relative to H77c HMW1 Δ123 in assay [1] was under 6.58 fold; in assay [3] it was under 1.68 fold. The figures for the binding to HMW1 Δ123 relative to monomeric Δ123 of corresponding strain in assay [1], in assay [2] and in assay [3] were 0.17 fold, under 0.37 fold and under 0.09 fold, respectively.

On to HCV1 (antibody), for which the binding to HMW1 Δ123 relative to H77c HMW1 Δ123 in assay [1] worked out at 2.05 fold; in assay [3], 2.08 fold. Further, the binding to HMW1 Δ123 relative to monomeric Δ123 of corresponding strain stood at 1.46 fold in assay [1], 1.21 fold in assay [2] and 0.92 fold in assay [3].

B1: Con1 Δ123 glycoproteins, unfractionated (cell culture supernatant and TALON eluate) (other)
chain: GTYGSSGQLVNTNGSWHINRTALNCNDSLNTGFLAALFYVHKFNSSGCPERMASCGSSGCWHYAPRPCGIVPAAQVCGPVYCFTPSPVVVGTTDRFGVPTYSWGENETDVLLLNNTRPPQGNWFGCTWMNSTGFTKTCGGPPCGSSGCPTDCFRKHPEATYTKCGSGPWLTPRCLVHYPYRLWHYPCTVNFTIFKVRMYVGGVEHRLEAACNWTRGERCNLEDRDRSEHHHHHH
notes: Mixture of monomers, dimers and HMW forms as secreted by FS293F cells
As for B1, in assay [4], the binding result is “binds”.

B2: S52 Δ123 glycoproteins, unfractionated (cell culture supernatant and TALON eluate) (other)
chain: ETHQKLQLVNTNGSWHINSTALNCNESINTGFIAGLFYYHKFNSTGCPQRLSSCGSSGCWHYAPRPCSVVPASSVCGPVYCFTPSPVVVGTTDIKGKPTYNWGENETDVFLLESLRPPSGRWFGCAWMNSTGFLKTCGAPPCGSSGCPTDCFRKHPEATYSRCGAGPWLTPRCMVDYPYRLWHYPCTVNFTLFKVRMFVGGFEHRFTAACNWTRGERCNIEDRDRSEHHHHHH
notes: as for B1
For B2, the binding result in assay [4] is given as “binds”.
